In patent US20190276551A1:

Biological target: human CD38 protein immobilised on AR2G biosensor (human) (UniProt P28907)
Assay: Octet BLI, immobilised CD38

koff: 0.0044 s⁻¹
Substance: Daratumumab scFv
